From the DeepSol protein solubility set

test: soluble on expression in E. coli; label from the status in PepcDB or PDB records

Sequence | soluble on expression in E. coli
MTAEILVVGSILPSDKFFCFLMGPAPVFPNSRKPATLDANSDEQTLRPYFKTKVEQAEQTVAEKSINVRRLMAQQKELNGKVRLLKEEISHLHEQGSHVGEVCKAMDKKKVLVKNHPDGKYIVDVAASVDISTLAAGTRVALRADNYAIHEVLPSKVDPLVSLMMVEKVPDSTYEMVGGLDTQIKEIKEVIELPVKHPELFDALGIAQPKGVLLYGPPGTGKTLLARAVAHHTECTFIRVSGSELVQKFIGEGARMVRELFVMAREHAPSIIFMDEIDSIGSSRVEGSRGGDSEVQRTMLELLNQLDGFEATKNIKVIMATNRIDILDSALLRPGRIDRKIEFPAPDEKARAQILKIHSRKMNLMRGIRMDKIAEQIPGASGAEVKSVCTEAGMFALRERRIHVTQEDFEMAVGKVMQKDSEKNMSIKKLWK | not soluble
MTAGGERVTERGTGSDPVDLFIIGGGINGCGIARDAAGRGLSVTLAEMGDLAQATSSASTKLFHGGLRYLEYFEFRLVREALEERETLLVAMPHISWPMRFVLPWQPEMRFAGDTPTARLLGRLMPWARGRRPAWLIRLALETYDRLGGRKILPPARSVDLTRDPAGRALQPRFTKGWEYSDCWVEDSRLVVLNARDAEIRGATILTRTKVVGAERRGDLWHVTTEGARGRQVHRARALVNAGGPWVARIIRETLALPTTEGVRLVRGSHIVTKRLFDHDRCYFFQGTDGRIIFAIPYETDFTLIGTTDQDHRGAPDEARCTPEEQDYLCTFASDYFRKPVTREDIVWTYSGVRPLHDDGARSATAATRDYVLSLDSRGAPLLNVFGGKITTYRRLAESAMAKLAGHFPQARGAWTARVPLPGGDFPWDGAPALAEGLRRDYPFLTERWAMRLVRAYGTDARNLLGPARSALDLGRDFGATLTEAEVRWLMDREYAERAEDVVWRRSKLGLRLTPEEIAALDGWMKDAGGAMEARADTGLEHHHHHH | soluble
MTAHRSVLLVVHTGRDEATETARRVEKVLGDNKIALRVLSAEAVDRGSLHLAPDDMRAMGVEIEVVDADQHAADGCELVLVLGGDGTFLRAAELARNASIPVLGVNLGRIGFLAEAEAEAIDAVLEHVVAQDYRVEDRLTLDVVVRQGGRIVNRGWALNEVSLEKGPRLGVLGVVVEIDGRPVSAFGCDGVLVSTPTGSTAYAFSAGGPVLWPDLEAILVVPNNAHALFGRPMVTSPEATIAIEIEADGHDALVFCDGRREMLIPAGSRLEVTRCVTSVKWARLDSAPFTDRLVRKFRLPVIGWRGK | soluble
MTALISISLLLVTFAGAAEMCAPVTQHSTPQSDVPSTVTITFHKLETSTTTKDEILNAIRTSHPDVHATGEPIDKKSIKVTLTAVSCVTAMKLAEEVLNAGTPVVLNAYAMLCDGEISTNIKP | soluble
MTAPFKDHFSTGSANYAAHRPTYPAQLVDELAALCPGTRLALDCGCGTGQLTVLLAERFERVVGTDASAAQIDKAQARERVEYRVALAEDSGLAAASADLVTVAQAAHWLDLPRFYEEVRRVARADAILALVTYGVLHVDGPMEPLVQHFYHQVVGPYWPAERRHVEEGYRNLPFPFEERRLPDLAIEVAWTLDELLGYVGTWSAVKEAGKALGQDPGAAFVDELREAWGDPQTRYRVSWPLTVRAGVIR | not soluble
MTAPGSVPLTVIGGFWGAGKTTLLNYLLKVQHSERVLVMVNDFGSINIDAELLDQGRHDRPGVVRLQNGCVCCSIGGDLMQAFLQVMSMPDRPDRIIVEASGVADPTRIAQIGRVSGGLSDEGVITLVDASAVRALAADKYVGDIVRQQILSADIVLLNKLDLSSDAEIVETRAWLRDLAPRTRVVSCIHGEVDAVSVLGIGAGKVAPDTAGGPVDVPVPDLRRASTRHADTFHSSTLATEHRFDRRRIEYALDALPQTVLRGKGFVELEGEATPALLQLCGSRWTLDPVSTPAPPAGTHLVFIATGGRGVPRFDAPSHFEQALASRDAASADTSNLEHHHHHH | not soluble
MTATSLWELAERARKRLSEIAKGNRDRALLAMADLLEARWEEVLRANREDLEEAERTGLPKAKLDRLALKEKDLKTLTEGLRQIARLPDPLGRIEGLAKRPNGLRVGRMRVPLGLIGFIYEARPGATVEAVSVALKAGNAMLLRGGKEAFRSNRALVALWHEALGEAGLPEEAVTLVPTTDREAVLEMCRLELLDLLIPRGGEELIRLVQREARVPVLAHAKGVNHLYVDKKADLSMALRLALNGKTQRPAVCNALETVLVHEKVAEAFLPRLEKAMREKGVELRACPRALPLLKEAVPAREDEWDREYLDLVLRVKVVSGLEEALAHIARYGSRHTEAICTEDPKAAWRFLEEVDASLVLWNASTRFNDGFELGLGAEIGISTSKLHAYGPMGPMELTTLKWVALGEGQERT | soluble
MTAYLNALGVICALGDSREEVARRLFAGDSSGMVVESGWVPERALPVGAVKGALPAMPPAMRSQHSRNNQLLLAAALQIKDEIGQAIEQYGAGRIGVIIGTSTSGIDEASSSMASWLRDQTFPADYDYRQQELGAPANFLATWLQLSGPAYVISTACTSSARALLSARRALDMGLCDAVLCGGVDSLCKLTLNGFSALEAMSPQLCNPFSLNRNGINIGEAAALFLMTREAGSTHSIALLGAGANCDAHHISAPEPSGRGARDAMLQALSNARLEAAQISYLNLHGTATQLNDAMESLAVQAVFPEGVPCSSTKSLSGHTLGAAGALEIAFCWLSLVPHNTEHALPPQVWDGAADPLLPALHWTVPGARLAAADTRYMMSNSFAFGGNNISLIIGDAP | not soluble
MTCDDWNSFIQVNIYGKTIEGLQQQGVVLESLLNNIGCSKLWIVEGSMYTSLTNESSTYSESTIEPVVPLSTTLATNKLPRFSTPAVGHSKYNSAKNFTLNLAEKLSEILSDDDKTDKCLENSYQSETSREDVIQDLLEEMVQTVADVDQAPILLSTTLANIGVPRFSTPIKPQNGLDRKFTMNMTERISEIDSNYQGYELFEDSSNDCTTLIPNCQEVESSFYRALPEAASSIVPYQEGKRRSSRRLSTLSSLKETVKIEPTVSKLTKRRRLTSIESSNETMVPHSEPIPLDKDGFSYEQPINEYGDNESFLSAKSLCTEPRSSISEDVKPVLKATDSERTVSIGNHIVDHHPVIELSTEHNTMGEFQYDFDDEDTVLIGNYEEVGTEIDEAEQQNEENSEDDEEDESPIPSTKKVSFAVPVVQRLNKRNEQMNKNHIIKCNFEGCKQILSWKLRYGKQRLLDHAMTHENEKCLVCRTCEYSCSTHPQMKYHYQKMHPEVRCDGFNIQKVFNIEFDEVAIFDLFQKCFGAHSSIIGNIGKPRRYKKCKNSLKNTPEVDNENVDKDSPGPSHDLF | not soluble
MTDEIISYQKAKLAKNLAISTASKWLFVHSSTGGSATNLSIAQYATLINGIQSAIKCQVILTAGKGERERAVELAEKLTDQNVVIYDKNDGLADFTRSLACADLFIAGSTGPLHIAGGLNIPTVGFYPSRLSATPRRWRPINQVDKHLAFCPPSGKQCEMDLTLISIEQALTSVIPFIKKMWQLSLEHHHHHH | soluble
MTDKYRLRERVWDDLEDSGVARFPFPPHGRIPNYAGADEAAARLTETDVWQRAETVKANPDAPQLPVRRAALRAGKTLYAAVPRLRDEECFLRLDPTTIDDIDAATTVSGIEEYGDPVGPGDVDPIDLIVSGSVAVTDRGERVGKGEGYSDLEFALLRAFGRVDDDTATVTTVHERQVVDDAVPTAAHDVPMEYVVTPDRTITTTHEDDTPSGIDWDALDEQRLAEIPVLDRRSP | soluble
MTDVTSPVVDEKPCFGANPQIFKLGLGKQHILAHDIGQGSQCRNLPTCRCEGLDLHFWRKMCKNCGCRMDEHDVVLPNEFDHAQIVIGRLFGAREHFEKVLTKPGMYKPNEQNETKENNMMSTRSQPTAVYNYKMASSDSESERGGSNNKENVQYAWAPLPDKNLVSRYMKALPEDERPLVGSKGEQNRKSRLQFQLPLYDCNVEDARFVEEKDVKTLQNFVENVRNNVIGVGRVVEIGKDSDNYGDNENTNEFEKSMTAALKGLKIGETDCKDCNEMMETGDIGVECHHHSTTDTYHPNCFRCETCRQLLVDNIYFFYKNKYYCGRHYADQLYPRCAGCDELIFANEYTFAEEKSWHFDHFACYKCDFKLGGSRYMTRDENPFCLDCYLKHFAKTCDTCQSKIGPDEKRLNYNETHWHAEERCFQCVQCKMNLIGKKFMLKNHKLLCSSQCKANYNSANPDDQL | not soluble
MTEADDPKKKIRARIERDVYSVLLSFQEGATPNQVERRMDDTLGYTYVGKYVQAGVRDMAQLLREHKDVRQNLSGVFSVVANEDNQDLINLISKQKKKKKGGKGAKPIRAATSMGFHNKSGFGYAAHLRSPKPSFMYPASSARANPAKPQATGYRNTVRHPPVRPSTATGHSSFANRSAYSHHTTRSTTVGPVKIAPSATAQRPLLRQPVTVVQRLSSTVAVPVLQPGIDSKCMPSIVDFSNNVKRMMLLEYPADVHLSELTEIYDKHFDVSIDPLQLFSKSWMMFVKTSFKEWLQLGTDGRVEVKEPWFTNFGAALKKSMPPAPEKKKPTTLHEPTSSVASSSLPISQGFRYQIPVVRPIVSVAESMKGLTVSARSVMGTPKDLPGVSNPIKNTARGSNKPRNDLASSKASKDLVVPVMKTTCIKSLEDTSTSSSNPSTLQLSTASTSATDQKLPKMSFGRQIEKGSSIPGRHISLALTEIKNQKVIAASIVGKSAKTSTKVPSTTRSVVLPPMSKGPGLARSRNFSPQQSTTSSIDNECLEAINAALPSDKDSW | soluble
MTEDQVEILEYNFNKVNKHPDPTTLCLIAAEAGLTEEQTQKWFKQRLAEWRRSEGLPSECRSVTD | soluble
MTEFSASLAPQVEAFLRYLSIERQLSPLTVTSYRRQLSALMEIGEQMGLAHWQTLDAAQVRSLVSRSKRAGLHASSLALRLSALRSFLNWLVSQGVLPANPAKGVSTPRSGRHLPKNIDVDEVNKLLSIDLNDPLAVRDRAMLEVMYGAGLRLSELVGMNCKHVDLASGDVWVMGKGSKERKVPLGKTAVTWLQHWLALRELFEPQDDAIFLANTGKRISARNVQKRFAEWGVKQGVSSHIHPHKLRHSFATHMLESSGDLRAVQELLGHANLTTTQIYTHLDFQHLATVYDAAHPRAKRGKS | not soluble
MTEILQTLKEYIPISLEEMSGIKLMNRTDTKYVTSYQILKEILLAAGHDYRVQEVNGEYNIAYHTIYLDTADRDMYLTHQNGRVVREKIRIRTYVDSDLTFLEVKNKNNKGRTDKKRIRIGSIDTIKEDGGEAFLRQHAWYEQSQLLPLLENSFRRITLVNKHKTERLTIDTGVTFCCLQSGKISSLDNIVIIELKRDGHNSSPIKEILRKLHIQSSGFSKYCIGSALTVSHLKCNRLKPKLRMLNKMGVYLEHHHHHH | soluble
MTEITHRTKTRPVKVGNLTIGGNNEVVVQSMTTTKTHDVEATVAEIKRLEEAGCQVVRVACPDMRAAEAIPAIKKQISIPLVVDIHFDYKLALKAIEGGADKIRINPGNIGKRHKVEAVVKAAKEKGIPIRIGVNAGSLEKRILDKYGYPTADGMVESALHHIKILEDLDFHDIIVSMKASDVNLAIEAYEKAAKAFDYPLHLGITESGTLFAGTVKSAAGLGAILNMGIGNTVRVSLSADPVEEVKVARELLKSFGLASNAATLISCPTCGRIEIDLISIANEMEEYISKIRAPIKVAVLGCAVNGPGEAREADIGIAGARGEGLLFRKGEIVRKVPEETMVEELKKEIDKIAEEYFAKQKELEKA | not soluble
MTEKHKTMGKFKVIVLAGTAGTGKSTIAGELIHEFKDIYPDLKFIEGDDLHPPANVEKMTRGIPLNDDDRWDWLKKVAVESTKAAASTKEHLSIVACSSLKKKYRDLIRHTCPESEFHFIFLYASKIEVLKRLKTRKGHFMKADMMESQFRDLELPDINDETDCDIVPLDFKTFYQIEKDVIQVVKSKVLNIE | not soluble
MTELARLKFYATQPHSCSYLPDEQATTLFLDPSQPMDVHVYADLSEMGFRRSGDHLYRPHCQNCNACVPARIPATQFLPSRQQKRIIKRNSDLTVHAAKPCFSEEYFDLYQRYIEQRHADGDMFPPSRDQFSTFLVRDLPFSRFYEFRLDGRLLAVAVTDLLPNGLSAVYTFYEPDEERRSLGRFAILWQIGETLRLGLDAVYLGYWIKNCKKMNYKTQYRPIELLVNQRWVILNLEHHHHHH | not soluble
